{"source": "patent US20140023585A1", "about": "“177 LUTETIUM-LABELED BOMBESIN ANALOGS FOR RADIOTHERAPY” (UNIVERSITATSSPITAL BASEL, priority 2010, published 2014)", "key": {"[1]": {"conditions": "37° C., 5% CO2, up to 4 days of incubation", "procedure": "The mixture was incubated in a 5% CO2, 37° C. environment. At different time points, 100-μL aliquots (in triplicate) were removed and treated with 200 μL of EtOH to precipitate serum proteins. Samples were then centrifuged for 15 min at 500 rpm. […] The supernatant was analyzed with HPLC (eluents: A=0.1% trifluoroacetic acid in water and B=acetonitrile; gradient: 0 min 95% of A; 20 minutes 50% of A) to determine the stability of the peptide in serum."}, "PC-3 tumors [2]": {"test_system": "PC-3 tumors", "assay": "Dosimetry by MIRD methodology from biodistribution data", "type": "in vivo", "conditions": "mice", "source_text": "Doses of 150-200 Gy in the tumor could be achieved considering a maximum activity of 450 MBq to be injected per animal. Kidneys were not critical instead it was the pancreas to be the dose limiting organ. (In contrast to rodent pancreas, human pancreas expresses only very low amounts of the GRPr.)"}, "PC-3 tumors [3]": {"test_system": "PC-3 tumors", "assay": "Radionuclide therapy study with repeated injections", "type": "in vivo, nude mice", "conditions": "end of the study, compared to controls", "procedure": "(§1) A first therapy study was conducted on 25 nude mice (15-20 g) subcutaneously implanted with PC-3 ([…]). For toxicity study the same therapy protocol was applied to 25 CD1 mice. Thirteen days after implantation the mice were randomly divided in 5 groups and treated as described below: • 1. […] 200 pmol of ^natcompound 2 • 5. PBS\nAccording to the protocol agreed upon, three injections per week (days 0, 2, 4) were done and the procedure was repeated (days 14, 16, 18) after one pause week. Based on the biodistribution data of compound 3 with ^111In we observed that injections after 48 h would maintain stable the uptake in the tumor. The pause week is, in our opinion, important for the safety of the animals. The mice were periodically monitored by measuring tumor size and body mass. Animals with loss of >20% of their original weight or with tumor size >20 mm in diameter were sacrificed. Tumor sizes were determined by caliper measurements in two dimensions and tumor volumes were calculated assuming an elliptical shape."}, "[4]": {"assay": "Toxicity study, same therapy protocol in CD1 mice", "type": "in vivo", "procedure": "as §1"}}, "data": [{"smiles": "CC(C)C[C@H](NC(=O)C[C@H](O)[C@H](CC(C)C)NC(=O)[C@H](Cc1c[nH]cn1)NC(=O)CNC(=O)[C@@H](NC(=O)[C@H](C)NC(=O)[C@H](Cc1c[nH]c2ccccc12)NC(=O)[C@H](CCC(N)=O)NC(=O)[C@@H](Cc1ccccc1)NC(=O)CN1CCC(NC(=O)CN2CCN(CC(=O)O)CCN(CC(=O)O)CCN(CC(=O)O)CC2)CC1)C(C)C)C(N)=O", "note": "[compound 2, [^177Lu]-DOTA-4-amino-1-carboxymethylpiperidine-D-Phe-Gln-Trp-Ala-Val-Gly-His-Sta-Leu-NH2, metal not drawn]", "values": [{"measurement": "stability in human serum", "setting": "[1]", "result": "remarkable stability"}, {"measurement": "dose limiting organ", "setting": "PC-3 tumors [2]", "result": "pancreas"}, {"measurement": "histopathological changes", "setting": "PC-3 tumors [3]", "result": "no compound (radio-peptide) related histopathological changes"}, {"measurement": "survival and health of CD1 animals", "setting": "[4]", "result": "alive and look healthy"}, {"measurement": "body weight of CD1 animals", "setting": "[4]; stabilized after 5-6 months", "result": "increased"}]}]}
